Test results taken from patent publication US20230136301A1, “Corticosteriod Reduction in Treatment with Anti-CD38 Antibody” (Janssen Biotech, Inc., priority 2021, published 2023).
Entries after “also recorded” stand apart in the source; their conditions may differ.

Columns and labels:
[1] = tested on: patients with multiple myeloma; conditions: COLUMBA, cited from earlier work
patients with RRMM [2] = conditions: DARA MD 1,800 mg; PAVO Part 1; median follow-up 8.3 months; cited from earlier work
patients with RRMM [3] = conditions: in vivo
patients with RRMM [4] = test: PAVO Part 1: DARA MD safety and efficacy
patients with RRMM [5] = test: PAVO Part 3: immunogenicity (anti-daratumumab and anti-rHuPH20 antibodies); type: in vivo, human
Procedure: For evaluation of immunogenicity, anti-daratumumab antibodies in serum and anti-rHuPH20 antibodies in plasma were assessed pre-dose on Cycle 1 Day 1, Cycle 1 Day 15, Cycle 2 Day 22, Cycle 4 Day 1 and 4- and 8-weeks post-treatment. The presence of anti-daratumumab and/or anti-rHuPH20 antibodies was assessed for classification as neutralizing antibodies.

## DARA IV: daratumumab 16 mg/kg given by intravenous infusion
[1]; follow-up 7.5 months
  Median duration of response: not reached
[1]; median follow-up 7.5 months
  Overall response rate: 37%

## DARA MD: mix-and-deliver formulation of daratumumab (20 mg/mL) and rHuPH20 given subcutaneously by syringe pump
Patients with RRMM [2]
  ORR: 42.2%
Patients with RRMM [3]
  Serious TEAEs in SOC Infections and infestations: 17.8%
  TEAEs in SOC Infections and infestations: 71.1%
Patients with RRMM [4]
  Anemia, TEAE of Grade >3: 15.6%
  Serious TEAEs in SOC General disorders and administration site conditions: 6.7%
  TEAEs in SOC General disorders and administration site conditions: 71.1%

## daratumumab: human IgG1/κ anti-CD38 monoclonal antibody; heavy chain SEQ ID NO:12, light chain SEQ ID NO:13
Patients with RRMM [5]; daratumumab immunogenicity-evaluable n=41
  Patients positive for anti-daratumumab antibodies: no patient tested positive; also recorded: no patients evaluable for daratumumab immunogenicity were positive

B1: rHuPH20: recombinant hyaluronidase having the amino acid sequence of SEQ ID NO: 22 (protein, listed as Homo sapiens)
chain: LNFRAPPVIPNVPFLWAWNAPSEFCLGKFDEPLDMSLFSFIGSPRINATGQGVTIFYVDRLGYYPYIDSITGVTVNGGIPQKISLQDHLDKAKKDITFYMPVDNLGMAVIDWEEWRPTWARNWKPKDVYKNRSIELVQQQNVQLSLTEATEKAKQEFEKAGKDFLVETIKLGKLLRPNHLWGYYLFPDCYNHHYKKPGYNGSCFNVEIKRNDDLSWLWNESTALYPSIYLNTQQSPVAATLYVRNRVREAIRVSKIPDAKSPLPVFAYTRIVFTDQVLKFLSQDELVYTFGETVALGASGIVIWGTLSIMRSMKSCLLLDNYMETILNPYIINVTLAAKMCSQVLCQEQGVCIRKNWNSSDYLHLNPDNFAIQLEKGGKFTVRGKPTLEDLEQFSEKFYCSCYSTLSCKEKADVKDTDAVDVCIADGVCIDAFLKPPMETEEPQIFY
Patients with RRMM [5]; 1-week taper
  Patients positive for treatment-emergent anti-rHuPH20 antibodies: 1 (9.1%) n (%)
Patients with RRMM [5]; 2-week taper
  Patients positive for treatment-emergent anti-rHuPH20 antibodies: 3 (20.0%) n (%)
Patients with RRMM [5]; 3-week taper
  Patients positive for treatment-emergent anti-rHuPH20 antibodies: 6 (40.0%) n (%)
Patients with RRMM [5]; all cohorts
  Neutralizing anti-rHuPH20 antibodies: None of the anti-rHuPH20 antibodies were neutralizing antibodies
